From patent US20230105029A1 (CHIA TAI TIANQING PHARMACEUTICAL GROUP, published 2023)
Like-named read-outs stand apart in the source and are kept apart here. Values belong to the binder of their own block, whether it stands above or below them.

Columns and labels:
[1] = target: T1, recombinant human IL4Rα-his protein (in house made) (human, UniProt P24394 26-232, limits assumed); assay: competitive ELISA, blocks biotin-IL4 binding to coated IL4Rα-his
T1 construct: also called Human IL4Ra-his

[2] = target: T2, human IL4Rα expressed on 293F-IL4Rα cells (human, UniProt P24394 26-825); assay: flow cytometry on 293F-IL4Rα cells, blocked ligand biotin human IL4
T2 construct: whole, on cells; also called cell surface human IL4Rα

[3] = target: T2, human IL4Rα expressed on 293F-IL4Rα …; assay: flow cytometry on 293F-IL4Rα cells
[4] = target: T3, cynomolgus monkey IL4Rα-his protein (cynomolgus monkey, UniProt A0A2K5V580 33-239); assay: indirect ELISA on coated cynomolgus IL4Rα-his
T3 construct: Bought protein; also called Cynomolgus IL4Rα; Cyno-IL4Rα-his; not shown: his tag

[5] = target: T3, cynomolgus monkey IL4Rα-his protein; assay: indirect ELISA on coated cynomolgus IL4Rα-his; remark: listed apart in the source
Method: The anti-IL4Rα antibodies' cross-reaction with cynomolgus IL4Rα proteins or cal-IL4Rα-his proteins were measured. Briefly, 96-well micro plates were coated with 2 μg/ml cynomolgus IL4Rα-his protein (Sino biological inc., Cat #90897—C08H) or 0.2 μg/ml cal-IL4Rα-his protein (Custom made by Sino biological inc., Cat #BAX2) in carbonate/bicarbonate buffer (pH 9.6), 100 μl/well, for 2 hours at 37° C. ELISA plates were washed once with wash buffer (PBS+0.05% w/v Tween-20, PBST) and then blocked with 200 μl/well blocking buffer (5% w/v non-fatty milk in PBST) for 2 hours at 37° C. Plates were washed again and incubated with 100 μl/well serially diluted anti-IL4Rα antibodies of the disclosure or controls (0.004-66.7 nM, 5-fold serial dilution in 2.5% w/v non-fatty milk in PBST, starting at 66.7 nM) for 40 minutes at 37° C. […] After a final wash, plates were incubated with 100 μl/well TMB (Innoreagents). The reaction was stopped 3-10 minutes later at 25° C. with 50 μl/well 1M H₂SO₄, and the absorbance was read at 450 nm. Data was analyzed using Graphpad Prism software and EC₅₀ values were reported.

[6] = target: T1, recombinant human IL4Rα-his protein (in …); assay: competitive ELISA: coated human IL4Rα-his, blocked ligand biotin human IL4
[7] = target: T4, marmoset monkey IL4Rα-his protein (marmoset monkey); assay: indirect ELISA on coated cal-IL4Rα-his
T4 construct: Custom made by Sino biological; no cleavage site stated; also called cal-IL4Rα-his; Cal-IL4Rα
T4 chain: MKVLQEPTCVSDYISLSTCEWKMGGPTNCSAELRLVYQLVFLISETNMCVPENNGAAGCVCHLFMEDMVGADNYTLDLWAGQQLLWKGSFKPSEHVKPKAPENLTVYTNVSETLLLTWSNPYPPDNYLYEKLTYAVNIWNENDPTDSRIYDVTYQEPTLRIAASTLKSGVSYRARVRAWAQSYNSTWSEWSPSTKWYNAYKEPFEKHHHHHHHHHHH

[8] = target: T1, recombinant human IL4Rα-his protein (in …); assay: competitive ELISA: antibody mixed with biotin human IL4Rα-his, competitor plate-coated Benchmark
Method: The ability of the anti-IL4Rα antibodies of the disclosure to block benchmark-human IL4Rα binding was measured in a competitive ELISA assay. Briefly, the benchmark was coated on 96-well micro plates at 2 μg/mL in PBS, 100 μl per well, and incubated overnight at 4° C. The next day, plates were washed with wash buffer (PBS+0.05% w/v Tween-20, PBST), and blocked with 5% w/v non-fatty milk in PBST for 2 hours at 37° C. tiring plate blocking, the anti-IL4Rα antibodies of the disclosure or controls were diluted with biotin labeled human IL4Rα-his proteins (prepared in-house with SEQ ID NO: 57, 0.55 nM in 2.5% w/v non-fatty milk in PBST), starting at 100 nM with a 4-fold serial dilution, and incubated at 25° C. for 40 minutes. After plate washing, the antibody/IL4Rα-his mixtures were added to benchmark coated plates, 100 μl per well. After incubation at 37° C. for 40 minutes, plates were washed using wash buffer. Then the plates were added and incubated with 100 μl/well streptavidin conjugated HRP for 40 minutes at 37° C. to detect biotin-labeled human IL4Rα-his bound to plates. Plates were washed again using wash buffer. Finally, TMB was added and the reaction was stopped using 1M H₂SO₄, and the absorbance was read at 450 nm. Data was analyzed using Graphpad Prism software and IC₅₀ values were reported.

[9] = target: T1, recombinant human IL4Rα-his protein (in …); assay: capture ELISA: antibody captured on anti-IgG Fc plate, biotin human IL4Rα-his detected
[10] = target: human IL4Rα expressed on HEK293T-IL4Rα-STAT6-STAT6LUC-LB2 cells (human, UniProt P24394 26-825); assay: cell-based or functional assay
[11] = target: T1, recombinant human IL4Rα-his protein (in …); assay: SPR (Biacore), antibody captured, IL4Rα-his flowed
[12] = target: T4, marmoset monkey IL4Rα-his protein; assay: indirect ELISA on coated cal-IL4Rα-his
[13] = target: T2, human IL4Rα expressed on 293F-IL4Rα …; assay: flow cytometry on 293F-IL4Rα cells, blocked ligand biotin human IL4; remark: listed apart in the source
[14] = target: T1, recombinant human IL4Rα-his protein (in …); assay: capture ELISA: antibody captured on anti-IgG Fc plate, biotin human IL4Rα-his detected; remark: listed apart in the source
[15] = target: T2, human IL4Rα expressed on 293F-IL4Rα …; assay: flow cytometry on 293F-IL4Rα cells; remark: listed apart in the source

B3: mouse antibody B1D2F7D3B5 (antibody, V domains shown)
VH: EVKLVESGGGLVKPGGSLKLSCAASGFTFSSYAMSWVRQTPEKRLEWVASISSGDSTYYLDSVKGRFTISRDNAMNILYLQMSSLRSEDTAVYYCERSGGSAPYWGQGTLVSVSA
VL: QIVLTQSPAIMSASPGEMVTISCSASSSVSYMYWYQQKPGSSPKPWIYRTSNLASGVPARFSGSGSGTSYSLTISSMEAEDAATYYCQQYHSFPLTFGAGTKLELK
notes: Mouse hybridoma mAb
IC50 [8]: 0.024 nM

B4: mouse antibody B9D1D11F8D8 (antibody, V domains shown)
VH: EVKLVESGGGLVKPGGSLKLSCAASGFTFSSYAMSWVRQTPEKRLEWVASISSGDSTYYLDSVKGRFTISRDNARNILYLQVSSLRSEDTAMYYCERSGGSAPYWGQGTLVTVSA
VL: QIVLTQSPAIMSASPGDMVTISCSASSSVNYMYWYQQKPGSSPKPWIYRTSNLASGVPARFSGSGSGTSYSLTISSMEAEDAATYYCQQYHSFPLTFGAGTKLELK
notes: Mouse hybridoma mAb
IC50 [8]: 0.0209 nM

B5: mouse antibody C2C1A1A1 (antibody, V domains shown)
VH: EVQLVESGGGLVQPGGSLKLSCAASGFTFSTYGMSWVRQTPDKRLELVATINSNGGSTSYPDSVKGRFTISRDNAKNTLYLQMSSLKSEDTAMFYCARFFRFRNAMDYWGQGTSVTVSS
VL: DIQMTQSPASLSASVGETVTITCRTSENIYSYLAWYQQKQGKSPQFLVYNAKTLAEGVPSRFSGSGSGTQFSLNINSLQSEDFGSYYCQHYYGPPTWTFGGGTKLEIK
notes: Mouse hybridoma mAb; also called Mouse C2C1A1A1
IC50 [1]: 1.89 nM
EC50 [5]: 0.329 nM
EC50 [12]: 0.574 nM
IC50 [8]: 0.0383 nM

B6: chimeric antibody C2C1A1A1 (antibody, human IgG4 S228P, kappa, V domains shown)
VH: EVQLVESGGGLVQPGGSLKLSCAASGFTFSTYGMSWVRQTPDKRLELVATINSNGGSTSYPDSVKGRFTISRDNAKNTLYLQMSSLKSEDTAMFYCARFFRFRNAMDYWGQGTSVTVSS
VL: DIQMTQSPASLSASVGETVTITCRTSENIYSYLAWYQQKQGKSPQFLVYNAKTLAEGVPSRFSGSGSGTQFSLNINSLQSEDFGSYYCQHYYGPPTWTFGGGTKLEIKR
notes: Mouse variable domains on human IgG4/kappa; also called Chimeric C2C1A1A1; chC2C1A1A1
IC50 [1]: 3.12 nM
Inhibition on IL4 induced STAT6 phosphorylation (IC50, nM) [10]: 0.26 nM
Inhibition on IL13 induced STAT6 phosphorylation (IC50, nM) [10]: 0.39 nM
IC50 [13]: 0.482 nM
EC50 [14]: 0.0541 nM
Kd [11]: 0.388 nM
EC50 [12]: 0.623 nM
EC50 [15]: 0.326 nM

The remaining lines, values ahead:

IC50 [1]: 1.64 nM
IC50 [2]: 0.5 nM
EC50 [3]: 0.325 nM
EC50 [4]: 0.5 nM
EC50 [5]: 0.291 nM
IC50 [6]: 1 nM
EC50 [7]: 0.873 nM
IC50 [8]: 0.0171 nM
EC50 [9]: 0.213 nM
B1: mouse antibody B8G11F2B7G5E8 (antibody, V domains shown)
VH: EVQLQQSGADLVRPGASVKLSCTASGFNIKDTYMHWVKQRPEQGLEWVGRIDPTNGYTIYASKFQGKATITADTSSNTAYMQLSSLTSGDTAVYHCVSRRPWFAYWGQGTLVTVSA
VL: DILMTQTPLSLPVSLGAQASISCRSSQSIVHSNGNTYLEWYLQKPGQSPKLLIYKVTNRFSGVPDRFSGSGSGTDFTLKISRVEAEDLGIYYCFQGSHVPYTFGGGTKLEIK
notes: Mouse hybridoma mAb; also called Mouse B8G11F2B7G5E8; mAb B8G11F2B7G5E8

IC50 [1]: 1.82 nM
IC50 [2]: 0.364 nM
Inhibition on IL4 induced STAT6 phosphorylation (IC50, nM) [10]: 0.45 nM
Inhibition on IL13 induced STAT6 phosphorylation (IC50, nM) [10]: 0.5 nM
EC50 [3]: 0.442 nM
EC50 [4]: 1.06 nM
Kd [11]: 3.23 nM
IC50 [6]: 1.42 nM
EC50 [7]: 1.01 nM
EC50 [9]: 0.319 nM
B2: chimeric antibody B8G11F2B7G5E8 (antibody, human IgG4 S228P, kappa, V domains shown)
VH: EVQLQQSGADLVRPGASVKLSCTASGFNIKDTYMHWVKQRPEQGLEWVGRIDPTNGYTIYASKFQGKATITADTSSNTAYMQLSSLTSGDTAVYHCVSRRPWFAYWGQGTLVTVSA
VL: DILMTQTPLSLPVSLGAQASISCRSSQSIVHSNGNTYLEWYLQKPGQSPKLLIYKVTNRFSGVPDRFSGSGSGTDFTLKISRVEAEDLGIYYCFQGSHVPYTFGGGTKLEIKR
notes: Mouse variable domains on human IgG4/kappa; also called Chimeric B8G11F2B7G5E8; chB8G11F2B7G5E8

EC50 [5]: 108 nM
IC50 [8]: 0.716 nM
B7: mouse antibody C2B2F7B7 (antibody, V domains shown)
VH: EVQLVESGGGLVQPGGSLKLSCAASGFTFSTYGMSWVRQTPDKRLELVATINSNGGSTNYPDSVKGRFTISRDNAKNTLYLQMSSLKSEDTAMYYCARFFRIRNAMDYWGQGTSVTVSS
VL: DIQMTQSPASLSASVGETVTITCRASENIYSYLAWYQQKQGKSPQFLVYNAKTLAEGVPSRFSGSGSGTQFSLKINSLQPEDFGSYYCQHYYGTPTWTFGGGTKLEIK
notes: Mouse hybridoma mAb
